Changes are numbered by the printed parent chain.

Common to all, as to test: cell_activity; PAM TTTV/TTTN; RNP in HEK293T
Common to all, as to settings: tags: NLS, His6

In one series the target is T1, ID233 Cas12a.
T1 chain: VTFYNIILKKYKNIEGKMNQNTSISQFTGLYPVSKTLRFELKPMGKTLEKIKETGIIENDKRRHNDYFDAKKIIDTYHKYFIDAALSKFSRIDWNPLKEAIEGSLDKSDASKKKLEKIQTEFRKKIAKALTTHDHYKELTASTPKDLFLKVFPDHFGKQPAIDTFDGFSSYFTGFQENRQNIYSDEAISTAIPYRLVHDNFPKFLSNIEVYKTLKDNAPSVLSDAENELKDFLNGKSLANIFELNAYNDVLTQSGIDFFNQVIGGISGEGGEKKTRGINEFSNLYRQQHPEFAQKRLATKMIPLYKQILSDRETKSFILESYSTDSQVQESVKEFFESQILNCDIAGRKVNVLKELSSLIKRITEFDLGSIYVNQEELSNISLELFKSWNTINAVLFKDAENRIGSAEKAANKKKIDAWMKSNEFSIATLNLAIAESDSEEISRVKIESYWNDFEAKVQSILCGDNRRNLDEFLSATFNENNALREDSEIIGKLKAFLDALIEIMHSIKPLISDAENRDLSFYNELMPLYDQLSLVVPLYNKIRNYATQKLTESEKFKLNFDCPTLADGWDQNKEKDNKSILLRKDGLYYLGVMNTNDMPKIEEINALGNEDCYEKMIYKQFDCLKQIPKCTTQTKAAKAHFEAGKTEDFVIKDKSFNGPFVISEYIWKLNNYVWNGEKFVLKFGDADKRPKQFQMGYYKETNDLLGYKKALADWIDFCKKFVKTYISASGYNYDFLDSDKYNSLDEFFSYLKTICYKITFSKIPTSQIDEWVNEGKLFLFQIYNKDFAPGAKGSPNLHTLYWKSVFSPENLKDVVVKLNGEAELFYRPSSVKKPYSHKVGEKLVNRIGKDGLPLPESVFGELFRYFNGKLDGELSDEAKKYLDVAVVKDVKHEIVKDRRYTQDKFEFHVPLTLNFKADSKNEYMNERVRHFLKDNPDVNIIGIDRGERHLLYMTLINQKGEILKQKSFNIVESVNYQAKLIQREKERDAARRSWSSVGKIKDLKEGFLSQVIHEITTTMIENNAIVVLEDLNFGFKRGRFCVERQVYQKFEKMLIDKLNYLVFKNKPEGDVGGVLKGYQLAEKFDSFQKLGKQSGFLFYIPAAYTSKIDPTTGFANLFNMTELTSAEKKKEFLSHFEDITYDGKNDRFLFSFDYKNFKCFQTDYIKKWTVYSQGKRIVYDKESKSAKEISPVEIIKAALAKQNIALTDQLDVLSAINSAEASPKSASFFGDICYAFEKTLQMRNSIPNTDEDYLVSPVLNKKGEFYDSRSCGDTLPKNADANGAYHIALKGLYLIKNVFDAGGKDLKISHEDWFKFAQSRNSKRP
The protocol:
(§1) To confirm the in vivo gene editing activity of the CRISPR enzymes according to Experimental Example 4.1, the following experiments were performed: [0474] 1) CRISPR/Cas12a complexes were assembled according to Experimental Example 1.5 using CRISPR enzymes prepared according to Experimental Example 4.1 and guide RNAs. [0475] 2) The CRISPR/Cas12a complexes assembled in 1) were transfected into HEK293T cells according to Experimental Example 1.8, and gene editing activity was measured.

Another series deals with T2, ID236 Cas12a.
T2 chain: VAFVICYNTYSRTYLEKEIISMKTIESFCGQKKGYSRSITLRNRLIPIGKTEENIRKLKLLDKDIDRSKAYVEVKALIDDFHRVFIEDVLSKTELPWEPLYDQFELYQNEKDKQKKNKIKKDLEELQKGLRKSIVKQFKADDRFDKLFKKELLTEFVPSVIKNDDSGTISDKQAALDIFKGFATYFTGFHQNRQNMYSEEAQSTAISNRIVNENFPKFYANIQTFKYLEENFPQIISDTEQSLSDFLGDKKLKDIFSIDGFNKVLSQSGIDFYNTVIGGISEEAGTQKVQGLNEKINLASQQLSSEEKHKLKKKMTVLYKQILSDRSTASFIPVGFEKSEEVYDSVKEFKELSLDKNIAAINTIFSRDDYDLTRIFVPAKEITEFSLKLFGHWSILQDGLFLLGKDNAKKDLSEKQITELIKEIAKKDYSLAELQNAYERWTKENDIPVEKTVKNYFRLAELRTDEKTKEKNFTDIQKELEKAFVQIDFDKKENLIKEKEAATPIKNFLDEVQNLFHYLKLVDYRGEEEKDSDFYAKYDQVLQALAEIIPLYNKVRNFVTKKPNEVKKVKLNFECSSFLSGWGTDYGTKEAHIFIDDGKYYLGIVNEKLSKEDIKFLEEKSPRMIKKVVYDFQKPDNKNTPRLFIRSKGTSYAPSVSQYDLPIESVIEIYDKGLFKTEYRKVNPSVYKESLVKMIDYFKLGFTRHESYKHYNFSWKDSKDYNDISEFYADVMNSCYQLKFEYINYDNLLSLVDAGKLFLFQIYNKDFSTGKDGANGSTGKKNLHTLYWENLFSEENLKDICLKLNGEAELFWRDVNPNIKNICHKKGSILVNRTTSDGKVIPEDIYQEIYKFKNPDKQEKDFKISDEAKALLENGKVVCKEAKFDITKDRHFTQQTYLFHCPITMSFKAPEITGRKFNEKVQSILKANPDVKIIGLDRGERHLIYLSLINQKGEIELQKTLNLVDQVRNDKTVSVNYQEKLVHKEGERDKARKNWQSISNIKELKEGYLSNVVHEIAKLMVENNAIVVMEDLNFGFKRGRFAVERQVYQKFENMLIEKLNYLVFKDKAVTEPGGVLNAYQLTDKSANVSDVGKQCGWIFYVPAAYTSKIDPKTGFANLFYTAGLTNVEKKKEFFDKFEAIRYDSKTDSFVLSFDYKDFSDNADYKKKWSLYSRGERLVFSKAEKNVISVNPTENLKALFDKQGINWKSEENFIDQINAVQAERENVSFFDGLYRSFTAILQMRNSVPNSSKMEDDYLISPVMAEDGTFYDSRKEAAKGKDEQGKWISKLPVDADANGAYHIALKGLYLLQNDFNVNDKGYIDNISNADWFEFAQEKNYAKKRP
As for the experimental part: as §1

The next series concerns the target ID218 Cas12a. As for the experimental part: as §1

B1: 233 crRNA MTAP ; MTAP target (ssRNA ; dsDNA)
RNA: AAAAUUUCUACUCUUGUAGAUGCCCCAAUAAUCCCCACAUGUCA
DNA 1: GCCCCAATAATCCCCACATGTCA
DNA 2: TGACATGTGGGGATTATTGGGGC
In the series with ID233 Cas12a, B1 displayed an activity of 14.8 % indel.

B2: 236 crRNA MTAP ; MTAP target (ssRNA ; dsDNA)
RNA: B1 RNA with A1U, C13G
DNA 1: GCCCCAATAATCCCCACATGTCA
DNA 2: TGACATGTGGGGATTATTGGGGC
In turn, B2 registered an activity in the series with ID236 Cas12a of 17 % indel.

B3: 218 crRNA MTAP ; MTAP target (ssRNA ; dsDNA)
RNA: UAAUUUCUACUAAGUGUAGAUGCCCCAAUAAUCCCCACAUGUCA
DNA 1: GCCCCAATAATCCCCACATGTCA
DNA 2: TGACATGTGGGGATTATTGGGGC
In the series with ID218 Cas12a, B3 showed an activity of 90.4 % indel.

B4: 218 crRNA DYRK1A ; DYRK1A target (ssRNA ; dsDNA)
RNA: UAAUUUCUACUAAGUGUAGAUGAAGCACAUCAAGGACAUUCUAA
DNA 1: GAAGCACATCAAGGACATTCTAA
DNA 2: TTAGAATGTCCTTGATGTGCTTC
As for B4, the activity with ID218 Cas12a turned out to be 71 % indel.

B5: 233 crRNA DYRK1A ; DYRK1A target (ssRNA ; dsDNA)
RNA: AAAAUUUCUACUCUUGUAGAUGAAGCACAUCAAGGACAUUCUAA
DNA 1: GAAGCACATCAAGGACATTCTAA
DNA 2: TTAGAATGTCCTTGATGTGCTTC
Molecule B5 showed an activity with ID233 Cas12a of 12.2 % indel.

B6: 236 crRNA DYRK1A ; DYRK1A target (ssRNA ; dsDNA)
RNA: B5 RNA with A1U, C13G
DNA 1: GAAGCACATCAAGGACATTCTAA
DNA 2: TTAGAATGTCCTTGATGTGCTTC
In the series with ID236 Cas12a, B6 displayed an activity of 5.2 % indel.

The values are drawn from patent publication US20260234610, “NOVEL CAS12A PROTEIN, VARIANT OF NOVEL CAS12A PROTEIN, AND USE THEREOF FOR EUKARYOTIC GENOME EDITING” (NSAGE CORP., published 2026).
